Kd data for one molecule are collected here from paper PMC10204415 (2023).

Assay [1] addresses T1, MBP-ARHGEF11 (mouse ARHGEF11 residues 1334–1406, except for deleted residues 1352–1394 by alternative … (mouse, UniProt Q68FM7 1334-1406, deleted residues 1352–1394 by alternative splicing)). The assay is described as follows: replicate 1; without BSA blocking.
Assay [2] has as its target T1, MBP-ARHGEF11 (mouse ARHGEF11 residues …). The assay is described as follows: replicate 2; without BSA blocking.
Assay [3] shares this target. The experiment in a line: replicate 3; without BSA blocking.
Assay [4] has the same target. The assay is described as follows: replicate 1; GSA-immobilized MBP-ARHGEF11, CDNB assay.
Assay [5] shares this target. The experiment in a line: replicate 2; GSA-immobilized MBP-ARHGEF11, CDNB assay.
The target is the same in assay [6]. The experiment in a line: replicate 3; GSA-immobilized MBP-ARHGEF11, CDNB assay.

What is called Kd is the free concentration of one partner at which half of the binding sites on the other are occupied at equilibrium, for simple one-to-one binding.

T1 sequence (Q68FM7 entry or part of it deleted residues 1352–1394 by alternative splicing): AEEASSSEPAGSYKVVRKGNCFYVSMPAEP

B1: GST-ZO1-ZU5 (mouse ZO-1 ZU5 domain, residues 1624–1745) (domain or fragment)
chain: EDGHTVVATARGIFNSNGGVLSSIETGVSIIIPQGAIPEGIEQEIYFKVCRDNSILPPLDKEKGETLLSPLVMCGPHGLKFLKPVELRLPHCDPKTWQNKCLPGDPNYLVGANCVSVLIDHF
For B1, the Kd in assay [1] is 8.7 µM; in assay [2], 10.9 µM; in assay [3], 14.7 µM; in assay [4], 37.3 µM; in assay [5], 28 µM; in assay [6], 56 µM.
